Substrate in the data set: CC(=O)N1c2ccc(O)cc2Oc2cc(O)ccc21
The data set is described as follows: Catalase-dependent oxidation of AMPLEX-RED to resorufin in the absence of hydrogen peroxide (Lineweaver-Burke enzyme kinetics). To be noted: other: Lineweaver-Burke analysis, catalase 1 mg/ml, 50 mM phosphate buffer pH 7.4, room temperature, no hydrogen peroxide. The class given is biochemical, bovine.

Method: Reactions were carried out in buffer consisting of 50 mM phosphate buffer, pH 7.4 and 1.0 mg/ml of the catalase at room temperature (22° C.) in a reaction volume of 0.1 ml. […] Standard reaction mixtures contain 20 nmoles of the substrate. Detection of the fluorescent product resorufin was measured using an HTS 7000 Plus Bio Assay Reader (Perkin Elmer, Beaconsfield, Buckinghamsire, UK) using a 540 nm excitation filter and a 595 nm emission filter.

B1: mammalian catalase (Bos taurus) (protein)
chain: ADNRDPASDQMKHWKEQRAAQKPDVLTTGGGNPVGDKLNSLTVGPRGPLLVQDVVFTDEMAHFDRERIPERVVHAKGAGAFGYFEVTHDITRYSKAKVFEHIGKRTPIAVRFSTVAGESGSADTVRDPRGFAVKFYTEDGNWDLVGNNTPIFFIRDALLFPSFIHSQKRNPQTHLKDPDMVWDFWSLRPESLHQVSFLFSDRGIPDGHRHMNGYGSHTFKLVNANGEAVYCKFHYKTDQGIKNLSVEDAARLAHEDPDYGLRDLFNAIATGNYPSWTLYIQVMTFSEAEIFPFNPFDLTKVWPHGDYPLIPVGKLVLNRNPVNYFAEVEQLAFDPSNMPPGIEPSPDKMLQGRLFAYPDTHRHRLGPNYLQIPVNCPYRARVANYQRDGPMCMMDNQGGAPNYYPNSFSAPEHQPSALEHRTHFSGDVQRFNSANDDNVTQVRTFYLKVLNEEQRKRLCENIAGHLKDAQLFIQKKAVKNFSDVHPEYGSRIQALLDKYNEEKPKNAVHTYVQHGSHLSAREKANL
notes: purified catalases obtained from a variety of sources including enzyme from mouse and bovine liver; purchased Sigma Chemical Co., St. Louis, Mo; host or cells: liver tissue (mouse and bovine named)
In general, Km refers to the substrate concentration at which the rate is half of its maximum. The term Vmax denotes the rate approached at saturating substrate. For the protein B1, the Km amounted to 244 µM and the Vmax came to 4.74e-05 M/s.

Source of the values: patent US7015022B2, “Mammalian catalase-dependent oxidation processes and methods for stimulating oxidative activities” (University of Medicine & Dentistry of New Jersey, priority 2002, dated 2006).
